Reference: the supplement of paper PMC10065799, “High-throughput profiling of sequence recognition by tyrosine kinases and SH2 domains using bacterial peptide display” (eLife, 2023)

Legend:
[1] = target: Grb2 SH2 (UniProt P62993); test: SH2 binding enrichment of the phosphorylated peptide, bacterial display (enrichment ratio); higher = better substrate or ligand; peptides without Tyr show the background
[2] = target: c-Src SH2; test: as above
[3] = target: SHP2-C SH2; test: as above
[4] = target: FGFR3 (UniProt P22607); test: phosphorylation enrichment, bacterial display (enrichment ratio); higher = better substrate or ligand; peptides without Tyr show the background
[5] = target: Hck (UniProt P08631); test: as above
[6] = tested on: AncSZ; test: as above
[7] = target: EPHB2 (UniProt P29323); test: as above
[8] = target: FGFR1 (UniProt P11362); test: as above
[9] = target: Jak2 (UniProt O60674); test: as above
[10] = target: Fyn (UniProt P06241); test: as above
[11] = target: MERTK (UniProt Q12866); test: as above
[12] = tested on: c-Abl (mouse); test: as above
[13] = tested on: c-Src; test: as above
[14] = tested on: Fer (mouse); test: as above
[15] = target: Fes (UniProt P07332); test: as above
[16] = target: EPHB1 (UniProt P54762); test: as above
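Throughout, for SH2 binding enrichment of the phosphorylated peptide, bacterial display: peptide library displayed on the E. coli surface as eCPX fusions, selected cells deep-sequenced, score is each peptide's frequency after selection divided by its frequency in the input.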
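Throughout, for phosphorylation enrichment, bacterial display: 11-residue human phosphosite peptides and single-mutation variants displayed on the E. coli surface, counted by deep sequencing, each peptide's frequency after selection divided by its frequency in the unselected input library; frequency after pTyr selection over input frequency; kinase dosed for 20-30% of maximal phosphorylation in three min.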

FGFR1, sequence (P11362 whole entry, looked up): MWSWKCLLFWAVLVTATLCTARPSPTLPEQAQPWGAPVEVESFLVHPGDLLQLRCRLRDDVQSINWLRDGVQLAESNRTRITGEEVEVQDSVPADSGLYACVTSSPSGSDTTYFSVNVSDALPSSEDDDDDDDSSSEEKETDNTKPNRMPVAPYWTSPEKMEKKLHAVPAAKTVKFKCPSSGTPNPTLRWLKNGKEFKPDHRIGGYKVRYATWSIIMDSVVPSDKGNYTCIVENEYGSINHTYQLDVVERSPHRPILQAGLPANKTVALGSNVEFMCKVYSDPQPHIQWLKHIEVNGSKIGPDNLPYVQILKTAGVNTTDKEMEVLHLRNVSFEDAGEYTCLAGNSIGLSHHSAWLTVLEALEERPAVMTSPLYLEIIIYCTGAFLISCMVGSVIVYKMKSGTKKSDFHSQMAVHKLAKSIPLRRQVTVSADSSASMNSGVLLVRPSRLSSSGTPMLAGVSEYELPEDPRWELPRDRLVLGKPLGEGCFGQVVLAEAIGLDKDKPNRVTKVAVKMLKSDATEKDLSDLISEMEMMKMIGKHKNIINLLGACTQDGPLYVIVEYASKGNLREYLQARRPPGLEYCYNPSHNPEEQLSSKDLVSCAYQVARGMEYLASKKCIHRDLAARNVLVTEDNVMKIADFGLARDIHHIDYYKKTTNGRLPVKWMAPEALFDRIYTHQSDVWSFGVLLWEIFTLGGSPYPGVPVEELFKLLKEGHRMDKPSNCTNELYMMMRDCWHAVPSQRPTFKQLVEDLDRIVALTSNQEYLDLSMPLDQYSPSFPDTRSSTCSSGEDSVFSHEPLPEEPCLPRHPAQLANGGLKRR
Fes, sequence (P07332 whole entry, looked up): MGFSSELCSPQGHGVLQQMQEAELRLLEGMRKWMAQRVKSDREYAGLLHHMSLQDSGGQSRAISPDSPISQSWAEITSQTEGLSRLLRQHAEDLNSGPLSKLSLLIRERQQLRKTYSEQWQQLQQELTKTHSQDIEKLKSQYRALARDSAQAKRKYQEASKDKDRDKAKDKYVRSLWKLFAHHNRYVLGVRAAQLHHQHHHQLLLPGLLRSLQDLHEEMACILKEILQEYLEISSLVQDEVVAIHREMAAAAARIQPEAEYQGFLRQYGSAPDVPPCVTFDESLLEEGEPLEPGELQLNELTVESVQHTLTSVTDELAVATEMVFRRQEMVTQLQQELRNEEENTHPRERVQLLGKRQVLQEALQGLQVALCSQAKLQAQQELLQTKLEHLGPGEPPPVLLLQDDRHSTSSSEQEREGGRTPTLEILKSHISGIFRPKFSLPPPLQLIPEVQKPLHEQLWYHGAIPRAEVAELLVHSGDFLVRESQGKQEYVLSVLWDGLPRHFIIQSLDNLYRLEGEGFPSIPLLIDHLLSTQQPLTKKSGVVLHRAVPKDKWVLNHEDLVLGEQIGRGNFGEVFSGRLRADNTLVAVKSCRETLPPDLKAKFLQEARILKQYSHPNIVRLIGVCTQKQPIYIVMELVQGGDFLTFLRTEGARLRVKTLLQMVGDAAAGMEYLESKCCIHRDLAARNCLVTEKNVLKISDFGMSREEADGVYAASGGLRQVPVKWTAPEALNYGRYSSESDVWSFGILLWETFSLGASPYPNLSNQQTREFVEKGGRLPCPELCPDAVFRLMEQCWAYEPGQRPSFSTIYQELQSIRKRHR
FGFR3, sequence (P22607 whole entry, looked up): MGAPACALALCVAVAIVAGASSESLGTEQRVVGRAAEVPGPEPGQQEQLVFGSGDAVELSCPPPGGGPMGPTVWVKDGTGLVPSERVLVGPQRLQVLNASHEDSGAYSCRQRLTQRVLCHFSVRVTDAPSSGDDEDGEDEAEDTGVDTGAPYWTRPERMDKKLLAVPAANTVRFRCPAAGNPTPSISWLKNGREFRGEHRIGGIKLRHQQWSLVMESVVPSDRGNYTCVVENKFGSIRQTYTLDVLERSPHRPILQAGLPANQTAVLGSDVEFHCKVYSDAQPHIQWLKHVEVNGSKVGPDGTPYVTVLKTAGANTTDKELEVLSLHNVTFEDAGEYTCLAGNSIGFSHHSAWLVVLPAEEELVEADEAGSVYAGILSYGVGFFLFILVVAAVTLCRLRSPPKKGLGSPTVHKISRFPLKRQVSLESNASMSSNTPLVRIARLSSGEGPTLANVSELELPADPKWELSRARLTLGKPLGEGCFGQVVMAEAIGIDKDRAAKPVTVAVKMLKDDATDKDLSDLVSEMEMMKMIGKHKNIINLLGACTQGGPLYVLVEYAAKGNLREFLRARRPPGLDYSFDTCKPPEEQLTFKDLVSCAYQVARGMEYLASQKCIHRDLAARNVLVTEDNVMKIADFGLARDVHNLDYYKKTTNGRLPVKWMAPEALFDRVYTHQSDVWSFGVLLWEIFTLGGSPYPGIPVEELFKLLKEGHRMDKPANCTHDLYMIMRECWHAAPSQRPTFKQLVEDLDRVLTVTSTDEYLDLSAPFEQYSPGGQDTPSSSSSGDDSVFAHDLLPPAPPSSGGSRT
Fyn, sequence (P06241 whole entry, looked up): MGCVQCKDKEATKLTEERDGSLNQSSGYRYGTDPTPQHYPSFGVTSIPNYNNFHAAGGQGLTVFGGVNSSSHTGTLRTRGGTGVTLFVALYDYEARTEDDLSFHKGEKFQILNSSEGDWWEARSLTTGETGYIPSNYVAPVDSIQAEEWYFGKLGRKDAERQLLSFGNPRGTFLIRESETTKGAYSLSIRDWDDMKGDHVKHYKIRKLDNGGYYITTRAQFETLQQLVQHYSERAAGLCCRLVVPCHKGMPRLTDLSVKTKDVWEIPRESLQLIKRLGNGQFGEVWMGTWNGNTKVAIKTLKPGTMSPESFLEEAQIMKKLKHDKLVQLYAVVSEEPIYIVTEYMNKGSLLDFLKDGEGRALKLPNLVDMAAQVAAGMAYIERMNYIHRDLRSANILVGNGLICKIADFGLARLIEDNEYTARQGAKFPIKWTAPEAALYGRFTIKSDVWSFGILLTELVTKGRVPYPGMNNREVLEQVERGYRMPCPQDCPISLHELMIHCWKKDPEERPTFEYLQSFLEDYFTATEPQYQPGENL
EPHB2, sequence (P29323 whole entry, looked up): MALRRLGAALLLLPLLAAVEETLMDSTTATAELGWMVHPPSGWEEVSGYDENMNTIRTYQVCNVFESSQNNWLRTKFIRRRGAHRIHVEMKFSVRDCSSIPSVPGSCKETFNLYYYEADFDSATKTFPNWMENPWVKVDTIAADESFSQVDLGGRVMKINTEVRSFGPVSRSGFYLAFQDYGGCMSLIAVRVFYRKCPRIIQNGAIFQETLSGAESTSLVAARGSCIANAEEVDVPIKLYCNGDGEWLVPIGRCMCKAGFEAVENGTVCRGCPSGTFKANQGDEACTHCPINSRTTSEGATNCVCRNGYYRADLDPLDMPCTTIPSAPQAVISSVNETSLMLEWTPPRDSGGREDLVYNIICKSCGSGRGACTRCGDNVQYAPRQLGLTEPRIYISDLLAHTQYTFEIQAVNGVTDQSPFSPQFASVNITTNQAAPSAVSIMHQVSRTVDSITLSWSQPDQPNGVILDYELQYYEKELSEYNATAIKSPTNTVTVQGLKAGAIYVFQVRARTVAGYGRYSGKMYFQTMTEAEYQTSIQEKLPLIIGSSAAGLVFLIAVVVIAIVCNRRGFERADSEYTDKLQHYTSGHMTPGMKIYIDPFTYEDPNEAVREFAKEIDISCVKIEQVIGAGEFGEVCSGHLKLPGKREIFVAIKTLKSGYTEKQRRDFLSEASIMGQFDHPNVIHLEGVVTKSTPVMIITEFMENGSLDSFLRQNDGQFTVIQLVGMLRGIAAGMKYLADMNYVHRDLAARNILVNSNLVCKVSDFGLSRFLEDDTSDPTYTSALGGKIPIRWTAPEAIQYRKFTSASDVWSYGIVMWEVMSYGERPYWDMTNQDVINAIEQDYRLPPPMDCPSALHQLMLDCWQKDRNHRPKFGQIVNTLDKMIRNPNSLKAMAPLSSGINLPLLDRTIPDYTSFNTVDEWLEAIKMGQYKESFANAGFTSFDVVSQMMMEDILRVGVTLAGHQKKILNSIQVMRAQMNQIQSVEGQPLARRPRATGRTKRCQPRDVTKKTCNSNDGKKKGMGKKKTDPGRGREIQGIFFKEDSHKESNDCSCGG
Hck, sequence (P08631 whole entry, looked up): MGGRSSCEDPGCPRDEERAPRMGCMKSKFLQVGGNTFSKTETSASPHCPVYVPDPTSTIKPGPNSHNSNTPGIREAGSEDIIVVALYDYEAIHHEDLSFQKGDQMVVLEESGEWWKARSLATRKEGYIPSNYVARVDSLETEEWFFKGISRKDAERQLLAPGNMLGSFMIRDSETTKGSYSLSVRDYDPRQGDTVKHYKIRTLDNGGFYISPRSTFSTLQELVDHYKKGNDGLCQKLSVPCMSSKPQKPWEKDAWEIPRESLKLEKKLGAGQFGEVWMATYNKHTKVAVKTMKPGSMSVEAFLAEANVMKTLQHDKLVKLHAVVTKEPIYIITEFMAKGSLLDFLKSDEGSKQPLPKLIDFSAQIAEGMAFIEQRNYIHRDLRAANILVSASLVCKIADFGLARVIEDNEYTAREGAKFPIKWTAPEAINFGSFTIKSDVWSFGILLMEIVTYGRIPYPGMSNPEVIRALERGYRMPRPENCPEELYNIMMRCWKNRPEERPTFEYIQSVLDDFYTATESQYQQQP

Sequence | SH2 binding enrichment [1] | SH2 binding enrichment [2] | SH2 binding enrichment [3] | phosphorylation enrichment [4] | phosphorylation enrichment [5] | phosphorylation enrichment [6] | phosphorylation enrichment [7] | phosphorylation enrichment [8] | phosphorylation enrichment [9] | phosphorylation enrichment [10] | phosphorylation enrichment [11] | phosphorylation enrichment [12] | phosphorylation enrichment [13] | phosphorylation enrichment [14] | phosphorylation enrichment [15] | phosphorylation enrichment [16]
GIPIQYPIISE [NOG_Y222_W217G] | 0.847 | 0.498 | 0.457 | 0.685 | 0.446 | 0.868 | 0.587 | 0.627 | 1.02 | 0.541 | 0.447 | 0.888 | 0.409 | 0.467 | 1.11 | 0.55
RENGPYYTSYP [GDAP2_Y487] | 1.09 | 0.955 | 0.597 | 3.32 | 1.98 | 1.17 | 1.45 | 3.44 | 0.863 | 2.55 | 5.69 | 1.55 | 3.17 | 0.618 | 1.05 | 0.896
LVSCAYQMARG [FGFR1_Y605_V607M] | 0.731 | 0.661 | 0.9 | 0.882 | 0.741 | 1.22 | 0.79 | 0.66 | 0.937 | 0.589 | 0.489 | 0.998 | 1.4 | 0.824 | 2.32 | 0.578
SLQSEYVHYGG [CDC14A_Y591] | 0.587 | 0.533 | 0.69 | 0.95 | 0.927 | 0.919 | 0.973 | 0.811 | 0.655 | 0.69 | 0.558 | 0.6 | 0.848 | 0.441 | 0.774 | 0.854
FTRNFYVQAVL [CYBA_Y88_R90Q_YF] | 0.837 | 0.421 | 0.78 | 0.795 | 0.483 | 0.993 | 0.57 | 0.563 | 1.15 | 0.435 | 0.494 | 0.742 | 0.474 | 0.654 | 1.31 | 0.81
RMSQRYRDVLQ [CYP1A2_Y72_G73R] | 0.719 | 0.495 | 0.548 | 0.549 | 0.66 | 1.11 | 0.719 | 0.484 | 0.905 | 0.593 | 0.522 | 0.769 | 0.745 | 0.396 | 1.08 | 0.422
FADTAYNFRHG [PAH_Y166_I164T_YF] | 0.881 | 0.45 | 0.562 | 0.39 | 0.379 | 0.599 | 0.386 | 0.342 | 0.45 | 0.369 | 0.305 | 0.544 | 0.415 | 0.317 | 0.62 | 0.363
GVRTIYTIDGS [DCLK2_Y124] | 0.968 | 0.521 | 0.941 | 0.506 | 0.697 | 0.803 | 0.507 | 0.581 | 0.69 | 1.38 | 0.553 | 0.5 | 1.6 | 0.52 | 0.846 | 0.563
VNFGAYINDFN [GLB1_Y488_K493N_YF] | 3.12 | 1.48 | 0.674 | 0.708 | 0.46 | 0.954 | 0.6 | 0.474 | 0.899 | 0.451 | 0.409 | 0.788 | 0.397 | 0.571 | 1.07 | 0.633
TLRKTYGEMAD [ALB_Y108_E106K] | 0.788 | 0.449 | 0.537 | 0.51 | 0.433 | 0.535 | 0.355 | 0.508 | 0.752 | 0.387 | 0.381 | 0.462 | 0.419 | 0.379 | 0.709 | 0.307

The next lines start with results.

SH2 binding enrichment [1] | SH2 binding enrichment [2] | SH2 binding enrichment [3] | Sequence | phosphorylation enrichment [4] | phosphorylation enrichment [5] | phosphorylation enrichment [6] | phosphorylation enrichment [7] | phosphorylation enrichment [8] | phosphorylation enrichment [9] | phosphorylation enrichment [10] | phosphorylation enrichment [11] | phosphorylation enrichment [12] | phosphorylation enrichment [13] | phosphorylation enrichment [14] | phosphorylation enrichment [15] | phosphorylation enrichment [16]
1.21 | 0.734 | 0.68 | DYYDLYGGEKF [PTPN11_Y66] | 12.9 | 5.08 | 2.92 | 6.92 | 13.4 | 2.7 | 5.73 | 3.7 | 0.74 | 4.69 | 1.61 | 1.2 | 6.42
0.803 | 0.412 | 0.962 | DRPASYKKKSM [PDGFRA_Y768] | 0.347 | 0.39 | 0.383 | 0.367 | 0.324 | 0.494 | 0.365 | 0.418 | 0.546 | 0.409 | 0.306 | 0.517 | 0.343
0.915 | 0.591 | 0.682 | KRISCYEARYQ [PFKFB3_Y194_S197R] | 0.523 | 0.388 | 0.708 | 0.415 | 0.392 | 0.735 | 0.479 | 0.357 | 0.526 | 0.365 | 0.4 | 0.746 | 0.466
0.529 | 0.283 | 0.534 | QMQLKYSQSDL [SMC1A_Y714_R711Q] | 0.735 | 0.655 | 0.973 | 0.494 | 0.829 | 0.569 | 0.654 | 0.69 | 0.885 | 0.457 | 0.621 | 1.32 | 0.68
0.774 | 0.501 | 0.465 | RRIYSYRGHLW [VHL_Y112_H110Y] | 0.725 | 0.667 | 1.45 | 0.659 | 1.2 | 0.691 | 0.986 | 1.24 | 0.776 | 1.26 | 1.02 | 1.68 | 1.17
0.842 | 0.52 | 0.884 | DVFLKHLNFAT [PDE6B_Y212_Y212H] | 0.66 | 0.478 | 0.785 | 0.545 | 0.483 | 0.799 | 0.507 | 0.466 | 0.552 | 0.374 | 0.414 | 0.914 | 0.547
0.862 | 0.631 | 0.817 | NPQKSCFIRLF [WAS_Y83_Y83C_YF] | 0.704 | 0.526 | 1.06 | 0.578 | 0.583 | 0.974 | 0.459 | 0.467 | 0.848 | 0.453 | 0.47 | 1.18 | 0.606
